Substitutions are numbered along the chain they refer to. Values belong to the binder of their own block, whether it stands above or below them.
Experiments:
mouse CLDN18.2 = molecular target: T1, mouse CLDN18.2 (mouse, UniProt P56857 10-264, Expressed on HEK293T cells as a fusion to GFP. The GFP is left out of the letters.); assay: FACS dose curve, AF647-labelled IgG on HEK293T mouse CLDN18.2 MP cells
T1 construct: also called mouse CLDN18.2 fused to GFP; not shown: The GFP fused to mouse CLDN18.2, and any linker to it
T1 chain: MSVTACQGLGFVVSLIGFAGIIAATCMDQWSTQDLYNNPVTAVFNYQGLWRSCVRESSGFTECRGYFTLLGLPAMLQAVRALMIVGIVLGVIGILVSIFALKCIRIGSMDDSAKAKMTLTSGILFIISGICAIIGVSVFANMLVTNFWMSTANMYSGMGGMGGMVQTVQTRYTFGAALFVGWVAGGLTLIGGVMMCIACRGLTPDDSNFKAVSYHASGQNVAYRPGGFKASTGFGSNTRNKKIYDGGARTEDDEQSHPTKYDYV

[1] = molecular target: T2, human Claudin-18.2 (CLDN18.2) (human); assay: KinExA, cell-based; HEK293T-CLDN18.2-mGFP C12, Versene; Error% 2.35; 95% CI 2.12nM - 6.47nM; equilibrium curves 500pM, 2nM, 10nM
T2 construct: On cells: fused to GFP in engineered HEK293T cells (clone C12), endogenous in HUPT4 and SNU601 cells; also called human CLDN18.2
Protocol: (§1) For each KD measurement, in general, at least two antibody concentration curves were prepared using the same batch of cells (same passage) to avoid changes in expression level from passage to passage. Briefly, either HEK293T CLDN18.2-mGFP C12 cells (engineered overexpression cell line) or HUPT4 cells (native positive cell line) were detached using Versene. Cells were then equilibrated in different concentrations of the antibody solutions, respectively, in 2% FBS/DMEM or 2% FBS/RPMI at 4° C. overnight. Cells concentrations started with 1.8 ×10^7 cells/ml and 2-fold serial dilution was performed to 10 points. In addition, antibody solution only (Signal 100%) and nonspecific binding (NSB) buffer only were included in each curve. Next day, spin the cells at 1500 rpm for 10 mins and saved the supernatant for measurement. […] The KD and antigen expression level were calculated using two antibody curves analyzed by n-curve analysis.

[2] = molecular target: T2, human Claudin-18.2 (CLDN18.2); assay: FACS, 1.5 ug antibody, HEK293T-CLDN18.2 C12 clone cells
[3] = molecular target: T2, human Claudin-18.2 (CLDN18.2); assay: FACS, 1.5 ug antibody, HUPT4 cells (endogenous CLDN18.2)
Protocol: FACS assays were carried out to determine relative antigen binding strengths of the humanized antibodies (at either 1.5 μg or 0.3 μg) for binding to CLDN18.2 as expressed by the indicated cancer cell lines.

[4] = molecular target: T2, human Claudin-18.2 (CLDN18.2); assay: KinExA, cell-based; HUPT4, Versene; Error% 3.57; 95% CI 0.31nM - 1.34nM; equilibrium curves 1nM, 20nM
Protocol: as §1

[5] = molecular target: T2, human Claudin-18.2 (CLDN18.2); assay: KinExA, cell-based; HEK293T-CLDN18.2-mGFP C12, Versene; Error% 1.84; 95% CI 2.03nM - 4.44nM; equilibrium curves 500pM, 2nM, 10nM
Protocol: as §1

[6] = molecular target: T2, human Claudin-18.2 (CLDN18.2); assay: KinExA, cell-based; HUPT4, Versene; Error% 3.73; 95% CI 0.87nM - 3.23nM; equilibrium curves 1nM, 20nM
Protocol: as §1

[7] = molecular target: T2, human Claudin-18.2 (CLDN18.2); assay: KinExA, cell-based; HUPT4, Versene; Error% 2.72; 95% CI 0.58nM - 1.43nM; equilibrium curves 1nM, 20nM
Protocol: as §1

[8] = molecular target: T2, human Claudin-18.2 (CLDN18.2); assay: flow cytometry; HEK293T CLDN18.2 over HEK293T parental [Cont.]
Protocol: (§2) The samples were then measured by Intellicyt® iQue Advanced Flow Cytometry Platform.

[9] = molecular target: T2, human Claudin-18.2 (CLDN18.2); assay: flow cytometry; HUPT4 over M202 [Cont.]
Protocol: as §2

[10] = molecular target: T2, human Claudin-18.2 (CLDN18.2); assay: KinExA, cell-based; HEK293T-CLDN18.2-mGFP C12, Versene; Error% 7.72; 95% CI 0.18nM - 11.91nM; equilibrium curves 500pM and 10nM
Protocol: as §1

[11] = molecular target: T2, human Claudin-18.2 (CLDN18.2); assay: KinExA, cell-based; HUPT4, Versene; Error% 3.90; 95% CI 0.28nM - 1.32nM; equilibrium curves 1nM, 20nM
Protocol: as §1

[12] = molecular target: T2, human Claudin-18.2 (CLDN18.2); assay: KinExA, cell-based; HEK293T-CLDN18.2-mGFP C12, Versene; Error% 7.19; 95% CI 0.43nM - 6.90nM; equilibrium curves 500pM and 10nM
Protocol: as §1

B1: Ab 392 (antibody, V domains shown)
VH: EVQLQQSGPELVKPGASVKMSCKASGFTFTSYVMHWVKQKSGQGLEWIGYINPYNDDIKYNAKFEDKATLTSDRSSSTAYMELSSLTSDDSAVYFCTRGDYWGQGTTLTVSS
VL: DIVMTQSPSSLTVTTGEKVTMDCKSSQSLLNSGNQKNYLTWYQQKSGQPPKLLIYWASIRKSGVPDRFTGSGSGTDFTLTISSVQAEDLAVYYCLNDYSFPLTFGAGTKLELK
binding result (mouse CLDN18.2): no binding (tested: 0.32 nM to 1000 nM)

B2: Reference antibody 2 (Benchmark 2-163E12) (antibody, V domains shown)
VH: QVQLQQSGAELARPGASVKLSCKASGYTFTDYYINWVKQRTGQGLEWIGEIYPGSGNTYYNEKFKGKATLTADKSSSTAYMQLSSLTSEDSAVYFCARSYGAFDYWGQGTTLTVSS
VL: B1 VL with T15A, D22S, S46P, I59T, K61E, L95Q, F100Y
binding result (mouse CLDN18.2): no binding (tested: 0.32 nM to 1000 nM)

B3: Ab 400 (antibody, V domains shown)
VH: QVQLKESGPGLVAPSQSLSITCTVSGFSLNSYGVSWVRQPPGKGLEWLGVIWGDGSTNYHSALKSRLNINKDKSKSQVFLKLNSLQTDDTATYYCARPTRGNAMDYWGQGTSVTVSS
VL: DVVMTQSPSSLTVTAGEKVTMNCKSSQSLLNSGNQRSYLTWYQQKPGQPPKLLIYWASTRESGAPDRFTGSGSGADFTLTISSVQAEDLAIYYCQNNYNYPFTFGSGTKLEIK
binding result (mouse CLDN18.2): no binding (tested: 0.32 nM to 1000 nM)

B4: HuAb307-3 (antibody, V domains shown)
VH: EVQLLESGGGLVQPGGSLRLSCAASGFTFSSYTMSWVRQAPGKGLEWVATIIIGGSYTYYADSVKGRFTISRDNSKNTLYLQMNSLRAEDTAVYYCTRLVKGNAMDYWGQGTLVTVSS
VL: DIVMTQSPDSLAVSLGERVTMNCKSSQSLLNSGNQKNYLSWYQQKPGQPPKLLFYWASTRESGVPDRFSGSGSGTDFTLTISSVQAEDVAVYYCQNDYSYPFTFGQGTKLEIK
notes: Humanized, expressed as full-length IgG
Kd [1]: 3.65 nM
FACS signal (relative antigen binding strength) [2]: 151000
FACS signal (relative antigen binding strength) [3]: 34000
Kd [4]: 0.69 nM

Next, values leading:

Kd [5]: 3 nM
Kd [6]: 1.7 nM
B5: 02-0358-h3 (antibody, V domains shown)
VH: EVQLVESGGGLVQPGGSLRLSCAVSGFTFSSFGMHWVRQAPGKGLEWVAYISSGTTNIYYADSVKGRFTVSRDNAKNSLYLQMNSLRAEDTAVYYCVRSGYYGNSLDYWGQGTLVTVSS
VL: B4 VL with L30F, K36R, S40T, F54I, D97V, S99I, F102L
notes: Humanized IgG

Kd [7]: 0.93 nM
ratio OE [8]: 482
ratio native [9]: 137
Kd [10]: 1.42 nM
B6: 02-0307-h6 (antibody, V domains shown)
VH: B4 VH
VL: B4 VL with N31S
notes: Humanized IgG (detected with anti-human IgG Fc)

ratio OE [8]: 574
Kd [11]: 0.67 nM
Kd [12]: 1.81 nM
ratio native [9]: 111
B7: 02-0358-h5 (antibody, V domains shown)
VH: B5 VH
VL: B4 VL with L30F, N31S, K36R, S40T, F54I, D97V, S99I, F102L
notes: Humanized IgG

Reference: patent publication US11834499 (University of California, dated 2023)
